For the assay, the target named is human ubiquitin (15N-ubiquitin of the peptide titration) (human) (UniProt P0CG48). Kind of assay: NMR titration.

The values that follow come from paper doi:10.1101/2021.04.22.440356.

Chain of short peptide from the YUH1 N-terminus (1-10) (P35127 whole entry, looked up, tested part not stated): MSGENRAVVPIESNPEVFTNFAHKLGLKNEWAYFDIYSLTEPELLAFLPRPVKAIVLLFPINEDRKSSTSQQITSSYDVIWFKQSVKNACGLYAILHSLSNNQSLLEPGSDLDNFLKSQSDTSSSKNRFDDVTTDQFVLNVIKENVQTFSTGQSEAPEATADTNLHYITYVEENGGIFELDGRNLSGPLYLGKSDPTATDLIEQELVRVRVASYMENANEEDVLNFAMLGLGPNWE

By Kd is commonly meant a measure of binding affinity in units of concentration. A higher Kd goes with lower affinity. Regarding “short peptide from the YUH1 N-terminus (1-10) (from UniProt P35127 1-10)”, the Kd amounted to 180 µM.
